Values of other authors in patent US9422609B2, “Methods, compositions and devices for maintaining chemical balance of chlorinated water” (priority 2006, dated 2016).

Settings: hydrolysis of cyanuric acid

B1: cyanuric acid amidohydrolase from strain ADP of Pseudomonas sp.: cyanuric acid amidohydrolase (EC 3.5.2.15) from strain ADP of Pseudomonas sp. (protein, UniProt P58329 1-363, looked up)
Cyanuric acid amidohydrolase: MYHIDVFRIPCHSPGDTSGLEDLIETGRVAPADIVAVMGKTEGNGCVNDYTREYATAMLAACLGRHLQLPPHEVEKRVAFVMSGGTEGVLSPHHTVFARRPAIDAHRPAGKRLTLGIAFTRDFLPEEIGRHAQITETAGAVKRAMRDAGIASIDDLHFVQVKCPLLTPAKIASARSRGCAPVTTDTYESMGYSRGASALGIALATEEVPSSMLVDESVLNDWSLSSSLASASAGIELEHNVVIAIGMSEQATSELVIAHGVMSDAIDAASVRRTIESLGIRSDDEMDRIVNVFAKAEASPDGVVRGMRHTMLSDSDINSTRHARAVTGAAIASVVGHGMVYVSGGAEHQGPAGGGPFAVIARA
Km: 71 µM
Vmax: 8.4 µmol/min/mg
turnover rate: 3 reactions per second
